Measured values: patent US9187525B2, “Methods of treating ophthalmic diseases using NPR-B agonists” (Shire Orphan Therapies GmbH, dated 2015)
Numbered stars: 1 amine (or outer) side, 2 acyl side, 3 side chain; on linkers, the order of the positions; unused ones are H or OH. Square brackets hold non-standard residues; d marks the D form. Ends that are not written are not given here. * marks the point of attachment. Dtp = (R)-2,2-dimethylthiazolidine-4-carboxylic acid, CC1(C)SC[C@@H](C(=O)[*:2])N1[*:1]; Ebe = (R)-2-amino-3-(methylsulfanyl)propanoic acid, CSC[C@H](N[*:1])C(=O)[*:2]; Sni = (S)-nipecotic acid, O=C([C@H]1CCCN([*:1])C1)[*:2]; Pro(trans-4-Ph) = O=C(O)[C@@H]1C[C@@H](c2ccccc2)CN1; Phe(3-CF3) = N[C@@H](Cc1cccc(C(F)(F)F)c1)C(=O)O; Azetidine3carboxylic = O=C(C1CN([*:1])C1)[*:2]; Phe(3-Cl) = N[C@@H](Cc1cccc(Cl)c1)C(=O)O; Phe(4-Cl) = N[C@@H](Cc1ccc(Cl)cc1)C(=O)O; Pro(cis-4-F) = O=C(O)[C@@H]1C[C@H](F)CN1; Pro(4S-NH2) = N[C@@H]1CN[C@H](C(=O)O)C1; Phe(3-Me) = Cc1cccc(C[C@H](N)C(=O)O)c1; cisHyp = O=C(O)[C@@H]1C[C@H](O)CN1; NMeF = CN[C@@H](Cc1ccccc1)C(=O)O; 2Thi = N[C@@H](Cc1cccs1)C(=O)O; 3Thi = N[C@@H](Cc1ccsc1)C(=O)O; NMeL = CN[C@@H](CC(C)C)C(=O)O; d(αMeP) = C[C@]1(C(=O)O)CCCN1; Tle = CC(C)(C)[C@H](N)C(=O)O; hLeu = CC(C)CC[C@H](N)C(=O)O; hSer = N[C@@H](CCO)C(=O)O; Thz = O=C(O)[C@@H]1CSCN1; Nva = CCC[C@H](N)C(=O)O; dAze = O=C(O)[C@H]1CCN1; Hexanoyl = CCCCCC(=O)*; Ac3c = NC1(C(=O)O)CC1; Occ = octanoic acid; Sar = CNCC(=O)O

B1: JAL-1003 (peptide)
peptide: [Occ]A[3Thi]GLPLDRI-NH2
modifications: not fully specified (residue 2); printed as Occ-ala-Thk-Gly-Leu-Pro-Leu-Asp-Arg-Ile-NH2
B2: JAL-1010 (peptide)
peptide: [Occ]AFSLPLDRI-NH2
modifications: not fully specified (residues 2, 4); printed as Occ-ala-Phe-ser-Leu-Pro-Leu-Asp-Arg-Ile-NH2
B3: JAL-0992 (peptide)
peptide: [Occ]AFGLPLSRI-NH2
modifications: not fully specified (residue 2); printed as Occ-ala-Phe-Gly-Leu-Pro-Leu-Ser-Arg-Ile-NH2
B4: JAL-0979 (peptide)
peptide: [Occ]AFGL[Dtp]LDRI-NH2
modifications: not fully specified (residue 2); printed as Occ-ala-Phe-Gly-Leu-Dtp-Leu-Asp-Arg-Ile-NH2
B5: JAL-1012 (peptide)
peptide: [Occ]AFVLPLDRI-NH2
modifications: not fully specified (residues 2, 4); printed as Occ-ala-Phe-val-Leu-Pro-Leu-Asp-Arg-Ile-NH2
B6: JAL-0995 (peptide)
peptide: [Occ]AFGIPLDRI-NH2
modifications: not fully specified (residue 2); printed as Occ-ala-Phe-Gly-Ile-Pro-Leu-Asp-Arg-Ile-NH2
B7: JAL-0989 (peptide)
peptide: [Occ]AFGLPLDR[Tle]-NH2
modifications: not fully specified (residue 2); printed as Occ-ala-Phe-Gly-Leu-Pro-Leu-Asp-Arg-Tbg-
B8: JAL-1000 (peptide)
peptide: [Occ]A[2Thi]GLPLDRI-NH2
modifications: not fully specified (residue 2); printed as Occ-ala-Thi-Gly-Leu-Pro-Leu-Asp-Arg-Ile-NH2
B9: JAL-1006 (peptide)
peptide: [Occ]A[Phe(3-Me)]GLPLDRI-NH2
modifications: not fully specified (residue 2); printed as Occ-ala-Mmf-Gly-Leu-Pro-Leu-Asp-Arg-Ile-NH2
B10: JAL-1011 (peptide)
peptide: [Occ]AFTLPLDRI-NH2
modifications: not fully specified (residues 2, 4); printed as Occ-ala-Phe-thr-Leu-Pro-Leu-Asp-Arg-Ile-NH2
B11: JAL-0978 (peptide)
peptide: [Occ]AFGL[Pro(cis-4-F)]LDRI-NH2
modifications: not fully specified (residue 2); printed as Occ-ala-Phe-Gly-Leu-Fpr-Leu-Asp-Arg-Ile-NH2
B12: JAL-0974 (peptide)
peptide: [Occ]AFGL[Pro(4S-NH2)]LDRI-NH2
modifications: not fully specified (residue 2); printed as Occ-ala-Phe-Gly-Leu-Apr-Leu-Asp-Arg-Ile-NH2
B13: JAL-0980 (peptide)
peptide: [Occ]AFGL[Thz]LDRI-NH2
modifications: not fully specified (residue 2); printed as Occ-ala-Phe-Gly-Leu-Eaz-Leu-Asp-Arg-Ile-NH2
B14: JAL-0996 (peptide)
peptide: [Occ]AFG[Nva]PLDRI-NH2
modifications: not fully specified (residue 2); printed as Occ-ala-Phe-Gly-Nva-Pro-Leu-Asp-Arg-Ile-NH2
B15: JAL-0998 (peptide)
peptide: [Occ]AFG[hLeu]PLDRI-NH2
modifications: not fully specified (residue 2); printed as Occ-ala-Phe-Gly-Hle-Pro-Leu-Asp-Arg-Ile-NH2
B16: JAL-1005 (peptide)
peptide: [Occ]A[Phe(3-CF3)]GLPLDRI-NH2
modifications: not fully specified (residue 2); printed as Occ-ala-Mtf-Gly-Leu-Pro-Leu-Asp-Arg-Ile-NH2
B17: JAL-0975 (peptide)
peptide: [Occ]AFGL[Pro(trans-4-Ph)]LDRI-NH2
modifications: not fully specified (residue 2); printed as Occ-ala-Phe-Gly-Leu-Eay-Leu-Asp-Arg-Ile-NH2
B18: JAL-0993 (peptide)
peptide: [Occ]AFGLPL[hSer]RI-NH2
modifications: not fully specified (residue 2); printed as Occ-ala-Phe-Gly-Leu-Pro-Leu-Hse-Arg-Ile-NH2
B19: JAL-1002 (peptide)
peptide: [Occ]A[Phe(4-Cl)]GLPLDRI-NH2
modifications: not fully specified (residue 2); printed as Occ-ala-Pcf-Gly-Leu-Pro-Leu-Asp-Arg-Ile-NH2

Target: T1, natriuretic peptide receptor-B (human)
T1 chain: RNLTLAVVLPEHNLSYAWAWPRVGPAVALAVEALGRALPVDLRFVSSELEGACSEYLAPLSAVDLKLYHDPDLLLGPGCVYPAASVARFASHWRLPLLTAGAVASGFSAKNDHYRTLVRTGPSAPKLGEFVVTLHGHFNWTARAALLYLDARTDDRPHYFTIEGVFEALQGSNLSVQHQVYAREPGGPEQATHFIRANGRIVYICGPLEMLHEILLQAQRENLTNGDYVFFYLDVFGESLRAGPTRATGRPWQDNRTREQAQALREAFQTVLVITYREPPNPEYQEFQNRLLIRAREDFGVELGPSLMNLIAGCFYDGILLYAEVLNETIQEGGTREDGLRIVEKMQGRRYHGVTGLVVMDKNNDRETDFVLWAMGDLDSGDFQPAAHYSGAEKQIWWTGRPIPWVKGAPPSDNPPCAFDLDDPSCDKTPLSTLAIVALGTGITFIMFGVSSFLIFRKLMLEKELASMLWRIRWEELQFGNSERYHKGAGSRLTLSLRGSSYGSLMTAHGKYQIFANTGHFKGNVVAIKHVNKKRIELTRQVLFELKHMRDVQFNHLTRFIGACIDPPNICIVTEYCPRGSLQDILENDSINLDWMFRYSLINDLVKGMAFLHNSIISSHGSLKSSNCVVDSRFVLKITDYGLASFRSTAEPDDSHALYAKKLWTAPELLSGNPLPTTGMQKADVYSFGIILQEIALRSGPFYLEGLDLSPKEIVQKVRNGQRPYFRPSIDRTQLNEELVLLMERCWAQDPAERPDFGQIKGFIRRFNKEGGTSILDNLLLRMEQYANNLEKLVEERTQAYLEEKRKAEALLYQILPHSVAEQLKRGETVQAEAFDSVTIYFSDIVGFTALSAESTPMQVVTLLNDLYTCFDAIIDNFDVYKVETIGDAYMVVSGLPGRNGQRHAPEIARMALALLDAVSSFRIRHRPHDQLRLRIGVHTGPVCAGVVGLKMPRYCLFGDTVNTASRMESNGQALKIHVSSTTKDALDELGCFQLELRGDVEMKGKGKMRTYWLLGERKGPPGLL
Test: cell-based or functional assay

| Binder | EC50 group, cGMP in GTM-3 cells |
| --- | --- |
| Hexanoyl-[Ebe][dP]FGLPIDRIS[Ebe]-NH2 [JAL-0533] | ≤ 15 µM |
| B1 | ≤ 15 µM |
| [Occ][Sar]FGLPLDRI-NH2 [JAL-0950] | ≤ 15 µM |
| [Occ][Sni]FGLP[NMeL]DRI-NH2 [JAL-0956] | ≤ 5 µM |
| Hexanoyl-[Ebe][dP]FGLKIDRIS[Ebe]-NH2 [JAL-0534] | ≤ 15 µM |
| B2 | ≤ 5 µM |
| B3 | ≤ 15 µM |
| [Occ][dA]FGLP[hLeu]DRI-NH2 [JAL-0959] | ≤ 15 µM |
| B4 | ≤ 15 µM |
| [Occ][dA][Phe(3-Cl)]GLPLDRI-NH2 [JAL-0946] | ≤ 15 µM |
| B5 | ≤ 15 µM |
| B6 | ≤ 15 µM |
| B7 | ≤ 15 µM |
| B8 | ≤ 15 µM |
| [Occ][Sni][NMeF]GLP[NMeL]DRI-NH2 [JAL-0958_01] | ≤ 5 µM |
| [Occ][dP]FGLP[NMeL]DRI-NH2 [JAL-0955_01] | ≤ 5 µM |
| [Occ][dA]FGL[cisHyp]LDRI-NH2 [JAL-0964] | ≤ 15 µM |
| B9 | ≤ 15 µM |
| [Occ][dA]F[dA]LPLDRI-NH2 [JAL-0944] | ≤ 15 µM |

| Binder | EC50 group, cGMP in GTM-3 cells |
| --- | --- |
| B10 | ≤ 5 µM |
| B11 | ≤ 15 µM |
| [Occ][Azetidine3carboxylic]FGLPLDRI-NH2 [JAL-0985] | ≤ 15 µM |
| [Occ][dA]FGL[d(αMeP)]LDRI-NH2 [JAL-0962] | ≤ 15 µM |
| B12 | ≤ 5 µM |
| B13 | ≤ 15 µM |
| [Occ][dA]F[Ac3c]LPLDRI-NH2 [JAL-0945] | ≤ 15 µM |
| B14 | ≤ 15 µM |
| [Occ][dP][NMeF]GLPLDRI-NH2 [JAL-0966] | ≤ 15 µM |
| B15 | ≤ 15 µM |
| B16 | ≤ 15 µM |
| B17 | ≤ 15 µM |
| [Occ][dA][NMeF]GLP[NMeL]DRI-NH2 [JAL-0954] | ≤ 5 µM |
| [Occ][dP][NMeF]GLP[NMeL]DRI-NH2 [JAL-0957] | ≤ 15 µM |
| B18 | ≤ 15 µM |
| [Occ]GFGLPLDRI-NH2 [JAL-0951] | ≤ 15 µM |
| [Occ][dAze]FGLPLDRI-NH2 [JAL-0953] | ≤ 5 µM |
| B19 | ≤ 15 µM |
| [Occ][Sni][NMeF]GLPLDRI-NH2 [JAL-0967_01] | ≤ 15 µM |
